The test concerns the target SroF^Phi3T, master repressor of phage Phi3T (recombinant) (Bacillus phage Phi3T). Briefly: BLI. A general note: Biolayer interferometry detects binding as a change in optical thickness at a sensor tip.

pKd: −log10 of the molar value.

Turning to “Sar^Phi3T, shorter annotation lacking the first 10 amino acids (recombinant) (natural protein)”, the negative logarithm of the Kd (pKd) was 7.66.

As a reminder, the pKd is the negative decadic logarithm of the Kd, by convention in mol/L.

Source of the values: publication doi:10.1101/2025.11.27.690993.
